Test results from doi:10.1101/2021.05.19.444448.

T1: HA-PGBD1 (Homo sapiens, UniProt Q96JS3 1-809)
T1 sequence: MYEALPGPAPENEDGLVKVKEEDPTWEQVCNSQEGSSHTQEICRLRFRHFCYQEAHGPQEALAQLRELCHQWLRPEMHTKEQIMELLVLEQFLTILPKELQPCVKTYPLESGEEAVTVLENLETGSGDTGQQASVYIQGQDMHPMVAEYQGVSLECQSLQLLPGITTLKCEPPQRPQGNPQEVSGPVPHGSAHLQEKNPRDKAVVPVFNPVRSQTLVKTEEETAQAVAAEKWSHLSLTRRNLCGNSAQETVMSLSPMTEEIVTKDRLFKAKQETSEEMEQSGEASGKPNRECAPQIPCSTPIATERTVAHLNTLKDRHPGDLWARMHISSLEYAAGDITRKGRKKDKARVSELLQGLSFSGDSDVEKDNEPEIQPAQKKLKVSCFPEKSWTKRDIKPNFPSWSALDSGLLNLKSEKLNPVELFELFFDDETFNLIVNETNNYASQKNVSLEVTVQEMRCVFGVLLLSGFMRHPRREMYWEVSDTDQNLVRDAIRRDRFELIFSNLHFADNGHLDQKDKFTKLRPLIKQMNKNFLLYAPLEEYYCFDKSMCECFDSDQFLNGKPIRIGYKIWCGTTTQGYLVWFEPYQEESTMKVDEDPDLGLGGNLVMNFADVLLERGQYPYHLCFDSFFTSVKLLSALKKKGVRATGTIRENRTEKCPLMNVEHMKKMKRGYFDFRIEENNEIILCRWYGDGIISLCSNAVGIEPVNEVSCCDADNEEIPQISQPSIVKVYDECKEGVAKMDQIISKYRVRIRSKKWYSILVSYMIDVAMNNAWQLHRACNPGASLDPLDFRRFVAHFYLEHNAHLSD

B1: SCAN-12 / PGBD1 oligo (GS-PGBD1-UP/LOW) (dsDNA)
DNA 1: GCTTTCAATGGAATGGAATGCCTTCC
DNA 2: GGAAGGGATTCCATTCCATTGAAAGC
B2: unlabelled PGBD1 oligo (competitor) (dsDNA)
DNA 1: GCTTTCAATGGAATGGAATGCCTTCC
DNA 2: GGAAGGGATTCCATTCCATTGAAAGC

Tests used:
HA-PGBD1 [1] = target: T1, HA-PGBD1; assay: EMSA
HA-PGBD1 [2] = target: T1, HA-PGBD1; assay: competition

| Binder | binding result (HA-PGBD1 [1]) | binding result (HA-PGBD1 [2]) |
| --- | --- | --- |
| B1 | binds | – |
| B2 | – | binds |
